The numbers were not newly measured in article PMC10947324, which cites them from elsewhere.

Common to all, as to conditions: monomeric, unstructured Abeta
Data set [1] addresses His6 (UniProt position 677, DAEFRHDSGYE).
Data set [2] deals with His14 (UniProt position 685, GYEVHHQKLVF).
Data set [3] deals with His13 (UniProt position 684, SGYEVHHQKLV).

A word on the pKa: it is the negative logarithm of the acid dissociation constant. Regarding “Amyloid-beta peptide (Abeta), monomeric (Homo sapiens (inferred; the article discusses the peptide of Alzheimer's disease patients))”, the pKa is recorded as 6.67 in data set [1], 6.67 in data set [2] and 6.64 in data set [3].
